{"source": "the nanobody polyreactivity screen of Harvey et al. (2022)"}
{"experiment": "yeast display, Sf9 membrane polyspecificity reagent, FACS + sequencing; frameworks hold sequencing errors", "procedure,_shortened": "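Galactose-induced (36–48 hours) yeast carrying a synthetic nanobody display library were exposed to 10% biotinylated, detergent-solubilized Sf9 membrane reagent at 4 °C for 1 hour. FACS followed streptavidin microbead enrichment, using low and high (top ~1%) gates for expression (anti-HA) and reagent binding (streptavidin). Colony PCR, MiSeq 2 × 250 sequencing and CDR-length filtering followed. Labels for polyreactivity reflect the gate of origin.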"}
{"sequence": "QVQLVESGGGLVQAGGSLRLSCAASGRTFVRYAMGWYRQAPAKERELVAVNSRRGGSTYYADSVKGRFTISRDNAKNTVYLQMNSLKPVDTAVYYFAADYVRSKYDYWGQGTQVTVSS", "polyreactivity (PSR sort gate)": "high polyreactivity"}
{"sequence": "QVQLVESGGGLVQAGGSLRLSCAASGRTFRSYTMGWYRQAPGKERELVAAIRTSSGSTYYADSVKGRFTISRDNAKNTVYLQMNSLKPEDSGVYYGAKTLLYPWFRTVAVDYWGQGTQVTVSS", "polyreactivity (PSR sort gate)": "low polyreactivity"}
{"sequence": "QDQLVESGGGLVQAGGSLRLSCAASGGIFKSNTMGWDRTAHGKERELVAAITYSDGGTYYADSVKGRFTISRDNAKNTVYLQMNSLTPEDTAVYYCAVDYDTFYWHHYPGEIDHWGQGTQVNVSS", "polyreactivity (PSR sort gate)": "low polyreactivity"}
{"sequence": "QVQLVESGGGLVQAGGSLRLSCAASGSIFVLYAMGWYRQAPGKERELVAAINYDGASTYYADSVKGRFTNSRDNAKNTVYLQMISLKREDTAVYYCAASWQFNIDVQLYLFEYWGQGTQVTVSS", "polyreactivity (PSR sort gate)": "low polyreactivity"}
{"sequence": "QVQLVESGGGLVQAGGSLRLSCAASGSTFPDNAMGWYRQAPGKERELVAAISWSGGSTNYADSVKGRFTISRDNAKNTVYLQMNSLKPEDTAVYYCNADDASHYYFRDEYWGLGTQVTVSS", "polyreactivity (PSR sort gate)": "low polyreactivity"}
{"sequence": "QVQLVESGGGLVQAGGSLRLSCAASGLTFYFYAMGWYRQAPGKERELVAAINSGGSTNYADSVKGRFTISRDNAKNTVYLQMNSLKPEDTAVYYCNADYYFTSYEYEYWGQGTQVTVSS", "polyreactivity (PSR sort gate)": "low polyreactivity"}
{"sequence": "QVQLVESGGGLVQAGGSLRLSCAASGSIFYYYAMGWYRQAPGKERELVADITRDCGTTYYADSVKGRFTISRDNAKNTVYLQMNSLKPEDTAVYYCNARSIVFDWSAGRAKMDYWGQGTQVTVSS", "polyreactivity (PSR sort gate)": "low polyreactivity"}
{"sequence": "QVQLVQSGGGLVHAGGSLRLSCAGSGSIFGTNAMGWYRQAPGKERELVATITSAGSTYYADSVKGRFTISRDYAKITFYLQMNSLKPEDTAVYYCARQATGYVYREYDYWGQGTQVSVSS", "polyreactivity (PSR sort gate)": "low polyreactivity"}
{"sequence": "QVQLVESGGGLVQAGGSLRLSCAASGSTFVIYAMGWYRQAPGKERELVATITSGGSTYYADSVKGRFTISRDNAKNTVYLQMNSLKPEDTAVYYCAADDWGWPFYYYDDPMDYWGQGTQVTVSS", "polyreactivity (PSR sort gate)": "high polyreactivity"}
{"sequence": "QVQLQESGGGLVQAGGSLRMSCSASGNIFDADIMGWYRQAPGKERELVASITDGRRTNYADSVKGRYTISRDSEKNTVYLQMNSLKPEDTAVYYCAAIAYPVVPTYFDYDSDYFHWGQGTQVTVSS", "polyreactivity (PSR sort gate)": "high polyreactivity"}
{"sequence": "QVQLVESGGGLDQAGGSLRLICAASGSTFYIYAMGWYRQAPGKEREFVAAIDFSGSSTYADSVKGRFTISRDNAKNPVYLQMNTLKPEDTAVYYCAAYQIYQYDGPYDYWGQGTQVTVSS", "polyreactivity (PSR sort gate)": "low polyreactivity"}
{"sequence": "QVQLVESGGGLVQAGGSLRLSCAASARIFDTYAMGWYRQAPGKETELVDSISIDGSTYYADSVKGRFTISRDNAKNTVYLQMNSLKPEDTAVYYCNADGRYYTVRFEYWGQGTQVTVSS", "polyreactivity (PSR sort gate)": "low polyreactivity"}
{"sequence": "QVQLVESGGGLVQAGGSLRLSCAASGSSFRYTMGWYRQAHGKQRELVATITYSDGSTYYADSVKGRFTISRDNAKNTVYFQMNSLKPEDTAVYYCARTTPTGRQYRRYDYWGQGSQVTVSS", "polyreactivity (PSR sort gate)": "low polyreactivity"}
{"sequence": "QVQLVESGGGLVQAGGSLRLSCAASGGTFLAYAMGWYRQAPGKERELVAAITRRGTRTYYADSVKGRFTISRDNAKNTVYLQMNSLKPEDTAVYYCAVSGGFYWGQGTQVTVSS", "polyreactivity (PSR sort gate)": "high polyreactivity"}
{"sequence": "QVQLVESGGGLVQAGGSLRLSCAASGFTFNRYVMGWYRQAPGKERELVAAISGGGARTYYADSVKGRFTISRDNAKNTVYLQMNSLKPEDTAVYYCNARYKSHSVSDYYYWGQGTQVTVSS", "polyreactivity (PSR sort gate)": "high polyreactivity"}
{"sequence": "QVQLVESGGGLVQAGGSLRLSCAASGNTFWSYAMGWYRQAPGKERELVAAITQRGGSTYYADSVKGRFTISRDNAKNNVDLQMNSLKPEDTAVYYCAADTYYKGDYWGQGTQVTVSS", "polyreactivity (PSR sort gate)": "high polyreactivity"}
{"sequence": "QVQLVESGGGLVQAGGSLRLSCAASGRIFYAYAMGWYRQAPGKERELVAGISRGSSTNYADSVKGRFTISRDNAKNTVYLQMNSLKPEDTAVYYSAADVHRRGRYHSTYDYWGQGTQVTVSS", "polyreactivity (PSR sort gate)": "low polyreactivity"}
{"sequence": "QHQLVESGAALVQAGGSLLVICAASVFTFPFYTMGWYRQAPGKEMELVAAISTSGAGTYYAESVKGRFTISRDNAKNTVYLQMNSLKTEDTAVYYCAAYKRGRREMDYWGQGTQVTVSS", "polyreactivity (PSR sort gate)": "high polyreactivity"}
{"sequence": "QVQLVESGGGLVQAGGSLRLSCAASGRTFSRYAMGWYRQAPGKERELVASIRSGGSTNYADSVKGRFTISRDNAKNTVYIQMNSLKPEDTAVYYCANVGRYWNPVYNSFYNFDYWGQGTQVTVSS", "polyreactivity (PSR sort gate)": "high polyreactivity"}
{"sequence": "QFHLVESGGGLVQAGGSLRLSCAATGSIFYTNAMGWYRQPAGTDRELVASIRSRDRTKYADSVKWRFSISRVNAKNTVYLQMNSLKPEDTAVYYCAADRYWYGVHASIYYYWGHGTQVTVSS", "polyreactivity (PSR sort gate)": "high polyreactivity"}
{"sequence": "QVQLVESGGGLVQAGGSLRLSCAASGSIFITYAMGWYRQAPGKERELVAAIRDSGDRTYYADSVKGRFTISRDNAKNTVYLQMNRLKPEETAVYYCNARWQEPLKYDYWGQGTQVTVSS", "polyreactivity (PSR sort gate)": "low polyreactivity"}
{"sequence": "QVKLVESGGGLVQAGGSLRLSCAASVRIFALNTMGWYREAPGKERELDAAISYRGGSTYYADSVKGRFTISRDNAKTTVYLQMNSLKPEDTAVYYCAARCYSYSRRYGYDYWGQGTQVTVSS", "polyreactivity (PSR sort gate)": "high polyreactivity"}
{"sequence": "QVQLVESGGGLVQAGGSLRLSCAASGFIFSGNAMGWYRQAPGKEREFVAAISTSAGTTNYADSVKGRFTISRDNAKNTVYLQMNSLKPEDTAVYYCAARSTRRRIYGYWGQGTQVTVSS", "polyreactivity (PSR sort gate)": "high polyreactivity"}
{"sequence": "QVQLVESGGGLVQAGGSLRLSCAASGSIFSDYAMGWYRQAPGKERELVAAITQSGGSTYADSVKGRFTISRDNAKNTVYLQMNSLKPEDTAVYYCAADEVPGFGYPPYPWFDYWGQGTQVTVSS", "polyreactivity (PSR sort gate)": "low polyreactivity"}
{"sequence": "QVQLVESGGRLVQAGGSLRLSCAASGSTIKSYAMGWYRQAPGKERELVAGITSGDSTNYADSVKGRFTISRDNAKNTVYFQMNSLKPDDTAVYYCNAVTQARYYYWGQGYQVTVSS", "polyreactivity (PSR sort gate)": "low polyreactivity"}
{"sequence": "QVQLVESGGGLVQAGGSLRLSCAASGSIFDRYAMGWYIQAPGKERELVASITWRATSTYYADSVKGRFTISRDNAKNTVYLQMNSLKPEDTAVYYCAADVPWGWWDSDFSDNYYWGQGTQVTVSS", "polyreactivity (PSR sort gate)": "low polyreactivity"}
{"sequence": "QVQHVESGGGLVQAGGSLRLSCPASGSTLYGYAMGWYRQEPGKESELVAAINTGASTNYADSVKGRFTISRDNAKNTVYLQMNSLKPEDTAVYYCAASYSLTFWDKDDYWGQGTQVTVSS", "polyreactivity (PSR sort gate)": "low polyreactivity"}
{"sequence": "QVQLVESGGGLVQAGGSLRLSCAASGRIFRKYGMGWYRPAPGKERELVAAITGGGSTYYADSVKGRFTISRDNAKNTVYVQMNSLKPEDTAVYYCARGGYRWYPYVYVPSPFDYWGQGTQVTVSS", "polyreactivity (PSR sort gate)": "high polyreactivity"}
{"sequence": "QVQLVESGGGLVQAGGSLRLSCAASGSIFSYYDMGWYRQAPGKERELVAAITTGGSTNYADSVKGRFTISRDNAKNTVYLQMNSLKPEDTAVYYCNAGRWWSRGYGYWGQVTQVTVSS", "polyreactivity (PSR sort gate)": "high polyreactivity"}
{"sequence": "QVQLVESGGGLVQAGGSLRLSCAASGLILSSNAMGWYRQAPGKERELVAAITWDGDRTYADSVKGRFTISRDNAKNTVYLQMNSLKPEDTAVYYCAADKQYSWYDWSYDYWGQGTQVTVSS", "polyreactivity (PSR sort gate)": "low polyreactivity"}
{"sequence": "QVQLVESGGGLVQAGGSLRLSCAASGSIFFDNAMGWYRQAPGKERELVATINSGGNTHYADSVKGRFTISRDNAKNTVYLQMNSLKPEDTAVYSCAADFRSDLVDGYNYWGQGTQVTVSS", "polyreactivity (PSR sort gate)": "low polyreactivity"}
{"sequence": "QVQLVESGGGLVQAGGSLRLSCAASGSIFDDYAMGWYRQAPGKERELVAAISWSGGRPYYADSVKGRFTNSRDNAKNTVYLPMNSLKPEDTAVYYCAATTGVRSRRYYYWVQGTQVTVSS", "polyreactivity (PSR sort gate)": "low polyreactivity"}
{"sequence": "QVQLVESGGGLVQARRSLRLSCAASGSTFVQYAMGWDRQAPGNERELVASISYSTGSSTYYADSVKGRFTISRDNAKTTVYLQMNSLKPEDTAFYECAAGIPKGGWSRPRYYYWGQGTQVTVSS", "polyreactivity (PSR sort gate)": "high polyreactivity"}
{"sequence": "QVQLVESGGCLVQAGGSLRLSCAASGSTFNYYAMGWYRQAPGKERELVAAISSSGGRTYYADSVKGRFTISRDNAKNTVYLQMNSLKPEDTAVYYCNARTYSYRGYNYWGQGTQVTVSS", "polyreactivity (PSR sort gate)": "high polyreactivity"}
{"sequence": "QVQLVESWGGLVQAGGTLRLSCAASGGIFIDYTMGWYRQAPGKERELVAAITRGGSTYYADSVKGRFTISRDNAKNTVYLEMNSLIAEDTAVYYCAARANSPVGHNRFGYWGQGTQVTVSS", "polyreactivity (PSR sort gate)": "low polyreactivity"}
{"sequence": "QVQLVESGGGLVQAGGSLRLSCAASGRIFLGNAMGWYRQAPGKESELVAAITYSGRSTYYADSVKGRFTISRDNAKNTVYLQMNSLKPEDTAVYYSAARQYWTTDLPFQRYYYWGQGTQVTVSS", "polyreactivity (PSR sort gate)": "low polyreactivity"}
{"sequence": "QVQLVESGGGLVQAGGSLRLSCSASGYIFLRNAMGWYRQAPGKERALVAAIRRTGGSTYYADSVKGRFTISRDNSKNTVYLQMTSLKPEDTAVYYCDKRSYTGYEYWGQGTQVTVSS", "polyreactivity (PSR sort gate)": "low polyreactivity"}
{"sequence": "QVQLVESGGGLVQAGGSLRLSCAASGFTFASNVMGWYRQAPGKERELVAAITSGASTNYADSVKGRFTISRDNAKNTVYLQMNSLKPEDTAVYYCAAGRQWYVFYEFDYWGQGTQVTVSS", "polyreactivity (PSR sort gate)": "high polyreactivity"}
{"sequence": "QVQLVESGGGLVQAGGSLRLSCAASGFTFYPNTMGWYRQAPGKERELVAAISSSGGRTYYADSVKGRFTISRDNAKNTVYLQMNSLKPEDTAVYYCNAAKWLTSGGLDYWGLGTQVTVSS", "polyreactivity (PSR sort gate)": "high polyreactivity"}
{"sequence": "QVQLVESGGGLVQAGGSLRLSCAASGSIFPYYTMGWYRQAPGKERELVAAISGSGTSTYYADSVKGRFTISRDNAKNTVYLQMNSLKPEDTADYYCAAPDPDKVRSEGYGYWGQGTHVTVSS", "polyreactivity (PSR sort gate)": "low polyreactivity"}
{"sequence": "QVQLVESGGGLVQAGGSLRLSCAASGIIFRVYTMGWYRQAPGKERELVAGISSGDSTSYADSVKGRFTISRDNAKNTVYLQMNSLKPEDTEVYYCNADGKAGGDYDYWGQGTQVTVSS", "polyreactivity (PSR sort gate)": "low polyreactivity"}
